Tested on: Escherichia coli TOP10
Assay: shrunken log2 fold change of peptide-encoding DNA abundance (4.5 h post-induction vs induction); higher = less antimicrobial activity (less host growth inhibition)
Settings: time post-induction: 4.5 h; library: site-saturation at positions 5, 18, 19, 20
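Note: peptides expressed intracellularly from a pBAD plasmid library in pooled LB shake-flask culture, induced with 0.3% L-arabinose, DNA abundance read by NGS, three biological replicates, DESeq2 with apeglm shrinkage.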

RRIRQRPPRLPRPRPRPVRYPRP
shrunken log2 fold change: 0.0926

RRIRERPPRLPRPRPRPHDWPRP
shrunken log2 fold change: -0.0393

RRIRVRPPRLPRPRPRPSNLPRP
shrunken log2 fold change: -0.586

RRIRKRPPRLPRPRPRPDQDPRP
shrunken log2 fold change: 0.0345

RRIRMRPPRLPRPRPRPLYEPRP
shrunken log2 fold change: 0.362

RRIRPRPPRLPRPRPRPMGQPRP
shrunken log2 fold change: 0.0687

RRIRIRPPRLPRPRPRPSERPRP
shrunken log2 fold change: -0.073

RRIRNRPPRLPRPRPRPNDNPRP
shrunken log2 fold change: -0.734

RRIRKRPPRLPRPRPRPDYPPRP
shrunken log2 fold change: -0.0226

RRIRTRPPRLPRPRPRPDFRPRP
shrunken log2 fold change: 0.0337

RRIRERPPRLPRPRPRPGIGPRP
shrunken log2 fold change: -0.0295

RRIRVRPPRLPRPRPRPPKSPRP
shrunken log2 fold change: 0.1

RRIRWRPPRLPRPRPRPMKDPRP
shrunken log2 fold change: -0.141

RRIRPRPPRLPRPRPRPPVFPRP
shrunken log2 fold change: 0.308

RRIRSRPPRLPRPRPRPTAFPRP
shrunken log2 fold change: 0.534

RRIRHRPPRLPRPRPRPVPDPRP
shrunken log2 fold change: -0.526

RRIRKRPPRLPRPRPRPKPYPRP
shrunken log2 fold change: 0.307

RRIRHRPPRLPRPRPRPRELPRP
shrunken log2 fold change: 0.234

RRIRVRPPRLPRPRPRPCTFPRP
shrunken log2 fold change: -0.0858

RRIRLRPPRLPRPRPRPCRVPRP
shrunken log2 fold change: -0.141

RRIRIRPPRLPRPRPRPMNHPRP
shrunken log2 fold change: -0.348

RRIRDRPPRLPRPRPRPTHDPRP
shrunken log2 fold change: 0.666

RRIRSRPPRLPRPRPRPLFQPRP
shrunken log2 fold change: -0.126

RRIRWRPPRLPRPRPRPLAEPRP
shrunken log2 fold change: 1.13

RRIRARPPRLPRPRPRPQSHPRP
shrunken log2 fold change: -0.162

RRIRPRPPRLPRPRPRPSWYPRP
shrunken log2 fold change: -0.698

RRIRWRPPRLPRPRPRPFLEPRP
shrunken log2 fold change: 0.0541

RRIRKRPPRLPRPRPRPSSGPRP
shrunken log2 fold change: -0.0282

RRIRKRPPRLPRPRPRPGPKPRP
shrunken log2 fold change: 1.15

RRIRARPPRLPRPRPRPVAYPRP
shrunken log2 fold change: 0.0127

RRIRDRPPRLPRPRPRPMNTPRP
shrunken log2 fold change: -0.125

RRIRVRPPRLPRPRPRPDDWPRP
shrunken log2 fold change: -0.198

RRIRIRPPRLPRPRPRPTGEPRP
shrunken log2 fold change: 0.00229

RRIRMRPPRLPRPRPRPEQSPRP
shrunken log2 fold change: 3.19

RRIRRRPPRLPRPRPRPMMPPRP
shrunken log2 fold change: 0.135

RRIRTRPPRLPRPRPRPFDSPRP
shrunken log2 fold change: -0.258

RRIRWRPPRLPRPRPRPAAVPRP
shrunken log2 fold change: 0.806

RRIRCRPPRLPRPRPRPKVVPRP
shrunken log2 fold change: -0.0915

RRIRWRPPRLPRPRPRPFVYPRP
shrunken log2 fold change: -0.428

RRIRWRPPRLPRPRPRPFHAPRP
shrunken log2 fold change: 0.0472

RRIRMRPPRLPRPRPRPFFAPRP
shrunken log2 fold change: 0.445

RRIRYRPPRLPRPRPRPEPKPRP
shrunken log2 fold change: 0.0661

RRIRVRPPRLPRPRPRPKPGPRP
shrunken log2 fold change: 0.507

RRIRYRPPRLPRPRPRPMKRPRP
shrunken log2 fold change: -0.0321

RRIRNRPPRLPRPRPRPPFQPRP
shrunken log2 fold change: 0.0529

RRIRERPPRLPRPRPRPQNAPRP
shrunken log2 fold change: 0.0619

RRIRCRPPRLPRPRPRPSSNPRP
shrunken log2 fold change: -0.715

RRIRGRPPRLPRPRPRPLCAPRP
shrunken log2 fold change: 1.55

RRIRIRPPRLPRPRPRPWTKPRP
shrunken log2 fold change: 0.0573

RRIRSRPPRLPRPRPRPYAEPRP
shrunken log2 fold change: -0.235

RRIRMRPPRLPRPRPRPFWWPRP
shrunken log2 fold change: 0.158

RRIRYRPPRLPRPRPRPTDFPRP
shrunken log2 fold change: -0.325

RRIRPRPPRLPRPRPRPYKKPRP
shrunken log2 fold change: -0.574

RRIRFRPPRLPRPRPRPENWPRP
shrunken log2 fold change: 0.0986

RRIRIRPPRLPRPRPRPRYGPRP
shrunken log2 fold change: -0.411

RRIRVRPPRLPRPRPRPEWHPRP
shrunken log2 fold change: -0.158

RRIRTRPPRLPRPRPRPCYTPRP
shrunken log2 fold change: -0.0244

RRIRIRPPRLPRPRPRPRRAPRP
shrunken log2 fold change: 0.176

RRIRWRPPRLPRPRPRPQNQPRP
shrunken log2 fold change: -0.265

RRIRVRPPRLPRPRPRPLADPRP
shrunken log2 fold change: 0.279

RRIRRRPPRLPRPRPRPTSLPRP
shrunken log2 fold change: 0.0087

RRIRSRPPRLPRPRPRPKRPPRP
shrunken log2 fold change: 0.413

RRIRTRPPRLPRPRPRPWKSPRP
shrunken log2 fold change: -0.0257

RRIRKRPPRLPRPRPRPMSCPRP
shrunken log2 fold change: 0.0384

RRIRCRPPRLPRPRPRPDSPPRP
shrunken log2 fold change: -0.353

RRIRERPPRLPRPRPRPLQVPRP
shrunken log2 fold change: -0.384

RRIRQRPPRLPRPRPRPIWRPRP
shrunken log2 fold change: -0.068

RRIRARPPRLPRPRPRPQKKPRP
shrunken log2 fold change: -0.0278

RRIRPRPPRLPRPRPRPSKTPRP
shrunken log2 fold change: 0.0619

RRIRWRPPRLPRPRPRPSCPPRP
shrunken log2 fold change: -0.33

RRIRKRPPRLPRPRPRPMYEPRP
shrunken log2 fold change: -0.132

RRIRARPPRLPRPRPRPEEIPRP
shrunken log2 fold change: 0.289

RRIRLRPPRLPRPRPRPLRVPRP
shrunken log2 fold change: 0.4

RRIRIRPPRLPRPRPRPVFAPRP
shrunken log2 fold change: 0.0576

RRIRERPPRLPRPRPRPTQDPRP
shrunken log2 fold change: 0.217

RRIRHRPPRLPRPRPRPRQYPRP
shrunken log2 fold change: -0.185

RRIRSRPPRLPRPRPRPAKRPRP
shrunken log2 fold change: 0.214

RRIRFRPPRLPRPRPRPQETPRP
shrunken log2 fold change: -0.0613

RRIRTRPPRLPRPRPRPTFLPRP
shrunken log2 fold change: -0.0937

RRIRSRPPRLPRPRPRPKGMPRP
shrunken log2 fold change: -0.0819

RRIRERPPRLPRPRPRPLHNPRP
shrunken log2 fold change: -0.388

RRIRDRPPRLPRPRPRPIPQPRP
shrunken log2 fold change: -0.0127

RRIRHRPPRLPRPRPRPVHLPRP
shrunken log2 fold change: -0.0199

RRIRQRPPRLPRPRPRPCPFPRP
shrunken log2 fold change: -0.505

RRIRGRPPRLPRPRPRPVATPRP
shrunken log2 fold change: 2.32

RRIRMRPPRLPRPRPRPLAEPRP
shrunken log2 fold change: 3.05

RRIRYRPPRLPRPRPRPHDYPRP
shrunken log2 fold change: -0.119

RRIRMRPPRLPRPRPRPFVDPRP
shrunken log2 fold change: -0.338

RRIRQRPPRLPRPRPRPSPWPRP
shrunken log2 fold change: 0.433

RRIRYRPPRLPRPRPRPYFVPRP
shrunken log2 fold change: -0.858

RRIRRRPPRLPRPRPRPNKCPRP
shrunken log2 fold change: -0.634

RRIRTRPPRLPRPRPRPWTHPRP
shrunken log2 fold change: -0.0143

RRIRLRPPRLPRPRPRPFRIPRP
shrunken log2 fold change: 0.0742

RRIRPRPPRLPRPRPRPNMDPRP
shrunken log2 fold change: -0.674

RRIRWRPPRLPRPRPRPVQVPRP
shrunken log2 fold change: 0.0298

RRIRLRPPRLPRPRPRPLQKPRP
shrunken log2 fold change: 0.141

RRIRPRPPRLPRPRPRPFVRPRP
shrunken log2 fold change: -0.117

RRIRMRPPRLPRPRPRPQQQPRP
shrunken log2 fold change: 0.246

RRIRVRPPRLPRPRPRPGFLPRP
shrunken log2 fold change: 0.101

RRIRMRPPRLPRPRPRPHVRPRP
shrunken log2 fold change: 0.231

RRIRPRPPRLPRPRPRPCFFPRP
shrunken log2 fold change: -0.0762

RRIRCRPPRLPRPRPRPVEKPRP
shrunken log2 fold change: 0.551

RRIRERPPRLPRPRPRPPEFPRP
shrunken log2 fold change: 0.127

RRIRARPPRLPRPRPRPAKKPRP
shrunken log2 fold change: -0.0777

RRIRMRPPRLPRPRPRPEVDPRP
shrunken log2 fold change: 0.784

RRIRWRPPRLPRPRPRPDPMPRP
shrunken log2 fold change: 0.444

RRIRSRPPRLPRPRPRPPAYPRP
shrunken log2 fold change: -0.0776

RRIRHRPPRLPRPRPRPELMPRP
shrunken log2 fold change: -0.141

RRIRPRPPRLPRPRPRPHKSPRP
shrunken log2 fold change: -0.283

RRIRWRPPRLPRPRPRPTNRPRP
shrunken log2 fold change: -0.018

RRIRGRPPRLPRPRPRPTEEPRP
shrunken log2 fold change: 0.525

RRIRIRPPRLPRPRPRPMHSPRP
shrunken log2 fold change: -0.0586

RRIRMRPPRLPRPRPRPHGSPRP
shrunken log2 fold change: 0.0248

RRIRLRPPRLPRPRPRPYTPPRP
shrunken log2 fold change: -0.484

RRIRVRPPRLPRPRPRPQNSPRP
shrunken log2 fold change: -0.802

RRIRKRPPRLPRPRPRPVIYPRP
shrunken log2 fold change: -0.0353

RRIRMRPPRLPRPRPRPQYCPRP
shrunken log2 fold change: -0.0737

RRIRGRPPRLPRPRPRPFNQPRP
shrunken log2 fold change: -0.28

RRIRIRPPRLPRPRPRPLLYPRP
shrunken log2 fold change: 0.47

RRIRLRPPRLPRPRPRPWPQPRP
shrunken log2 fold change: 0.244

RRIRARPPRLPRPRPRPYLIPRP
shrunken log2 fold change: -0.659

RRIRARPPRLPRPRPRPRRMPRP
shrunken log2 fold change: 0.551

RRIRVRPPRLPRPRPRPTCGPRP
shrunken log2 fold change: 0.0207

RRIRRRPPRLPRPRPRPTRYPRP
shrunken log2 fold change: 0.337

RRIRMRPPRLPRPRPRPSCLPRP
shrunken log2 fold change: -0.0926

Source: the supplement of paper PMC9112550, “Optimization of the antimicrobial peptide Bac7 by deep mutational scanning” (BMC Biology, 2022)
